In patent US9023987B2, “Cell-permeable peptide” (Seoul National University R&DB Foundation, priority 2010, dated 2015):

Assays:
[1] = molecular target: T1, human-derived Smurf1 protein (Homo sapiens, UniProt Q9HCE7); assay: Affinity to Smurf1 by surface plasmon resonance (BIACORE T100); type: binding; conditions: 10 mM analyte over Smurf1 coupled to CM5 chip; FIG. 2A
T1 construct: purchased Origene Technologies (Rockville, Md., USA)
Description: In order to confirm the affinity between cell permeable peptide-bone differentiation inducing sequence conjugate and Smurf1 by a chemical method, a human-derived Smurf1 protein acting as a ligand in the present experiment was purchased from Origene Technologies (Rockville, Md., USA). The protein ([…]) was coupled to a gold coated surface of a CM5 chip (BIACORE AB, Sweden) on which amino groups are bounded using an EDC/NHS kit (BIACORE AB, Sweden). (Instead of this experimental method, ‘Immobilization’ integrated into the BIACORE® T100 (BIACORE AB, Sweden) software used by the present inventors may be used). In this case, in order to find a suitable pH condition at which the protein may bind to the amino group in the CM5 chip, a method called ‘pH scouting’ was performed, thereby finding a pH condition. As a method of ‘pH scouting’, a method integrated in the BIACORE® T100 (BIACORE AB, Sweden) software used by the present inventors may be used. […]

Smurf1 = molecular target: T2, Smurf1 (Homo sapiens, UniProt Q9HCE7); assay: Immuno-precipitation and western blot of Smad1/5/8 ubiquitination in hMSC; type: cell-based; conditions: hMSC pre-treated with MG132, 10 mM peptide, 1 hour 30 minutes; compared with MG132 only; FIG. 2B
T2 construct: endogenous in cells; host or cells: human mesenchymal stem cells (hMSC)
Excerpt: In order to confirm presence or absence of the active site of the cell permeable peptide-bone differentiation inducing sequence conjugate synthesized by the method in Example 1 for binding to Smurf1, an immuno-precipitation method and a western blot assay method were used. The present experimental method is applied in order to confirm that the cell permeable peptide-bone differentiation inducing sequence conjugate synthesized by the method in Example 1 may suppress a bioactivity of Smurf1 decomposing Smd1/5/8 as one of the E3 ligases playing a role in ubiquitin ligation.
1×10^6 human mesenchymal stem cells (hMSC) used as a model cell in the present experiment were plated in each dish and then cultured in a general medium for 20 hours (overnight incubation). Then the cells was cultured in an hMSC basal medium (MSCBM™, LONZA, USA) containing 0.5% fetal bovine serum (FBS, GIBCO, USA) for 20 hours (overnight starvation). After overnight starvation in 0.5% MSCBM™, […] MG132 (MG132; proteasome inhibitor, Merck, USA) was added to the same medium to allow the cells to be pre-treated for 2 hours. Thereafter, the cell permeable peptide-bone differentiation inducing sequence conjugate synthesized by the method in Example 1 and peptides of Comparative Examples 1 and 2 were injected into each dish at a concentration of […], respectively, and cultured for 1 hour 30 minutes. […]

[2] = tested on: human mesenchymal stem cells (hMSC); assay: Cell differentiation ability by calcein staining; type: cell-based; design: dose or concentration left out as unconfirmed; conditions: hard tissue-forming medium with calcein, 14 days, compared with PBS; FIG. 4A g-i
Description: In order to confirm cell differentiation ability of the cell permeable peptide-bone differentiation inducing sequence conjugate, human mesenchymal stem cells (hMSC) were seeded in each well of a 4-well chamber slide at 5×10^3/well, and then incubated in a general medium for 20 hours (overnight) for cell stabilization. The cells were treated with the cell permeable peptide-bone differentiation inducing sequence conjugate synthesized from Example 1 and the bone differentiation inducing sequence of Comparative Example 2 of […] for each, and then incubated in a hard tissue forming medium containing calcein (calcium staining, green) for 14 days. The composition of the hard tissue-forming medium consisted of an MSCBM medium containing 15% FBS (fetal bovine serum), […] of L-ascorbic acid, 10^−7 M dexamethasone, 1% antibiotic-antimycotic solution, and 10 mM beta-glycerol phosphate. After completion of the incubation, the medium was removed, and then the cells were washed with phosphate buffer solution (PBS) twice. The cells washed with the phosphate buffer solution were fixed with 10% NBF (neutral buffered formalin), and then the nucleus was stained (Hoechst 33342, blue). […]

T2 sequence (Q9HCE7 whole entry): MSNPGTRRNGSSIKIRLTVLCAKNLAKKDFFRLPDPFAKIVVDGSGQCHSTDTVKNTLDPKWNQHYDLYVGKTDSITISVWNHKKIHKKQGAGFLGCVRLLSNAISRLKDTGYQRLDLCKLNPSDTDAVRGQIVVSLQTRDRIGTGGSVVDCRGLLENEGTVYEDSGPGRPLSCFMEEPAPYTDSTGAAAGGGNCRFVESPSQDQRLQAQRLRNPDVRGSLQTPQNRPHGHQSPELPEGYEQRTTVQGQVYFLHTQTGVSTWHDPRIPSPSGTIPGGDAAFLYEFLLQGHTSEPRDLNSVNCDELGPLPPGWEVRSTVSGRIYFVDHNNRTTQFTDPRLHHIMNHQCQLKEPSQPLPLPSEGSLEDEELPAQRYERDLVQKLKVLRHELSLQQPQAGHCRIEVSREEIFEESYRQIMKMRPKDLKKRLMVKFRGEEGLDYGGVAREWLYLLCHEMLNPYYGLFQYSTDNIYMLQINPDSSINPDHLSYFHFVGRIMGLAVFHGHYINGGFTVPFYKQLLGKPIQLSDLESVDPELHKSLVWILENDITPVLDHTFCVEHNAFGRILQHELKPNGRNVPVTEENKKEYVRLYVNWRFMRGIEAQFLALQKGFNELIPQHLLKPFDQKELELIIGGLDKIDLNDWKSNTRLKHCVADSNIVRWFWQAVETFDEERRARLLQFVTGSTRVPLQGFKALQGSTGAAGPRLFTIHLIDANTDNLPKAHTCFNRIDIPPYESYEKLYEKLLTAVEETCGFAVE
T1 sequence (Q9HCE7 whole entry): as above

NH2-GAPPPADSAP-SSRKKNPNCRRH-C-COONH2 (H-GAPPPADSAPSSRKKNPNCRRHC-NH2; cysteine pairing not given here) [Example 1]
affinity to Smurf1 [1]: 600 RU | ubiquitination of Smad1/5/8 (ubiquitin antibody after Smad1/5/8 immuno-precipitation) (Smurf1): ubiquitination of Smad1/5/8 was suppressed | calcein staining degree of phosphorylated calcium [2]: relatively strong staining degree of phosphorylated calcium
